Assay results: patent publication US20250312416A1, “METHOD AND PHARMACEUTICAL COMPOSITION FOR CARTILAGE REGENERATION” (FAR EASTERN MEMORIAL HOSPITAL, priority 2024, published 2025)

Columns and labels:
[1] = system: tibial articular cartilage of WT mice after ACLT; experiment: ACLT-induced OA mouse model, Safranin O / collagen II staining and OARSI score (CXCL14 protein); format: in vivo; conditions: for OARSI score: ACLT group 5.5, sham group 0.17
[2] = system: IPFP-MSC from OA patients; experiment: Alcian blue staining of chondrogenic pellets (GAG), IPFP-MSC; format: cell-based, human; conditions: IPFP-MSC during chondrogenesis, day 3
Description: (§1) The GSE140861 microarray database was used for analyzing the potential genes from human bone marrow cells at different time points during chondrogenesis. Whole-genome expression analysis was carried out using Illumina (CA) Human Ref-8v3 or Human HT-12 v4 BeadArrays™. It was first selected the secreted protein from this database and further verified the functions of the candidate genes. The numbers of significant differences in gene expressions of different time points from human bone marrow stem cells during chondrogenesis. […] Alcian blue staining analyzed the chondrogenic differentiation of pellets with varying ratios of IPFP-MSC. CXCL14 increased the GAG deposition in IPFP-MSC during chondrogenesis on day 3. FIG. 1C provides the fluorescence confocal microscopy images showing IPFP-MSC spheroids from OA patients treated with CXCL14 for 7 days; wherein the nuclei were stained with DAPI (blue), and merged images display SOX9 (red), type II collagen (green), and aggrecan (light blue) labeling. […] The chondrogenic progenitor cells in the human IPFP-MSC from OA patients were detected using SOX9 and Collagen type II biomarkers. MSCs were assessed by flow cytometry for SOX9 and Collagen type II biomarkers indicative of human MSCs on day 1. In addition, Alcian blue staining analyzed the chondrogenic differentiation of pellets with IPFP-MSC. […]

ADSC spheroids = experiment: Immunofluorescence / confocal microscopy of chondrogenic proteins in ADSC spheroids; format: cell-based, human; conditions: ADSC spheroids, 7 days
Description: Both side views (observed in the x and z plane) and bottom views (observed in the […]) of the images are provided. The scale bar is set at 500 μm.
ADSCs were treated with CXCL14-P, CXCL14-P1, or CXCL14-P2, respectively, at a concentration of 10 ng for 24 hours, after which the medium was replaced with fresh peptide-free medium. On day 7, total RNA was extracted, and real-time PCR analysis was performed to assess the expression levels of key chondrogenic markers, including ACAN, COL2A1, SOX9, and COMP. Gene expression levels were quantified using a LightCycler system (Roche Applied Science), with fold changes calculated relative to untreated control ADSCs. […] Immunofluorescence staining was performed to detect Collagen Type II, SOX9, COMP, and nuclei (Hoechst 33342) in 3D ADSC spheroids (middle panel).
(FIG. 3). […] Moreover, fluorescence confocal microscopy was employed to detect protein patterns and confirm the levels of SOX9, type II collagen, and aggrecan proteins in ADSC spheroids. […] Finally, to investigate whether the CXCR4 receptor of CXCL12/CXCL14 confers chondrogenic signaling during chondrogenesis, we treated ADSCs with a CXCR4 agonist for 7 days.
Extracellular vesicles (EVs) derived from MSCs hold significant potential for repairing damaged tissues. In this study, we explored whether EVs from ADSCs could effectively enhance chondrogenesis and promote cartilage repair. Immunofluorescence staining was used to assess protein levels of Collagen Type II (green), SOX9 (red), COMP (indigo), and Hoechst 33342 (gray) in 3D ADSC spheroids treated with MSC-EVs derived from CXCL14 peptide-primed ADSCs (CXCL14-P-MSC-EVs) at various time points. […] To further explore the cartilage repair functions of EVs from CXCL14-P-treated ADSCs and the encapsulation of the transcription factor SOX9 within MSCs and purified EVs, we performed in vivo studies.

[3] = system: IPFP-MSC spheroids from OA patients; experiment: Fluorescence confocal microscopy of IPFP-MSC spheroids (SOX9, type II collagen, aggrecan); format: cell-based, human; conditions: MSC spheroids during chondrogenesis, 7 days
Description: as §1

B1: CXCL14: small cytokine belonging to the CXC chemokine family, also known as BRAK; used as recombinant protein (protein, UniProt O95715 35-111, looked up)
C-X-C motif chemokine 14: SKCKCSRKGPKIRYSDVKKLEMKPKYPHCEEKMVIITTKSVSRYRGQEHCLHPKLQSTKRFIKWYNAWNEKRRVYEE
With B1 the OARSI score ([1]; CXCL14 10 ng) was 2.7, the OARSI score ([1]; CXCL14 20 ng) was 1 and the “cartilage repair (staining GAG content and type II collagen)” value ([1]; dose-dependent, ACLT-induced OA) was “can stimulate cartilage repair”. For the same molecule, the “GAG deposition (Alcian blue)” value [2] was “increased”, the “expression of SOX9, type II collagen, and aggrecan” value (ADSC spheroids) was “notably induced” and the “levels of SOX9, type II collagen, and aggrecan” value [3] was “elevated levels”.
